Test results as given in the supplement of paper PMC11246515.
± gives the standard deviation of the averaged measurements.

Test: total protein half-life in vivo (active degradation + dilution); higher = more stable protein
[1] = E. coli NCM3722 delta-clpP delta-lon delta-hslV, growth: N-lim chemostat, doubling time 6 h
[2] = E. coli NCM3722 delta-clpP, growth: N-lim chemostat, doubling time 6 h
[3] = E. coli NCM3722 delta-hslV, growth: N-lim chemostat, doubling time 6 h
[4] = E. coli NCM3722 delta-smpB, growth: N-lim chemostat, doubling time 6 h
[5] = wild type E. coli NCM3722, growth: C-lim chemostat, doubling time 3 h
[6] = wild type E. coli NCM3722, growth: C-lim chemostat, doubling time 6 h
[7] = wild type E. coli NCM3722, growth: C-lim chemostat, doubling time 12 h
[8] = wild type E. coli NCM3722, growth: N-lim chemostat, doubling time 6 h
[9] = wild type E. coli NCM3722, growth: N-lim chemostat, doubling time 12 h
[10] = wild type E. coli NCM3722, growth: P-lim chemostat, doubling time 6 h
[11] = wild type E. coli NCM3722, growth: P-lim chemostat, doubling time 12 h
[12] = E. coli NCM3722 delta-lon, growth: N-lim chemostat, doubling time 6 h

Sequence	total protein half-life in vivo [1]	total protein half-life in vivo [2]	total protein half-life in vivo [3]	total protein half-life in vivo [4]	total protein half-life in vivo [5]	total protein half-life in vivo [6]	total protein half-life in vivo [7]	total protein half-life in vivo [8]	total protein half-life in vivo [9]	total protein half-life in vivo [10]	total protein half-life in vivo [11]	total protein half-life in vivo [12]
MKKTAAIISACMLTFALSACSGSNYVMHTNDGRTIVSDGKPQTDNDTGMISYKDANGNKQQINRTDVKEMVELDQ	5.09 ± 0.4 h	5.11 ± 0.78 h	5.48 ± 0.12 h	5.68 ± 1.2 h	3.35 ± 0.3 h	5.25 ± 0.68 h	10.3 ± 0.96 h	5.312 ± 0.043 h	11.3 h	4.83 ± 0.12 h	11.1 ± 0.28 h	
MKKTTLALSALALSLGLALSPLSATAAETSSATTAQQMPSLAPMLEKVMPSVVSINVEGSTTVNTPRMPRNFQQFFGDDSPFCQEGSPFQSSPFCQGGQGGNGGGQQQKFMALGSGVIIDADKGYVVTNNHVVDNATVIKVQLSDGRKFDAKMVGKDPRSDIALIQIQNPKNLTAIKMADSDALRVGDYTVAIGNPFGLGETVTSGIVSALGRSGLNAENYENFIQTDAAINRGNSGGALVNLNGELIGINTAILAPDGGNIGIGFAIPSNMVKNLTSQMVEYGQVKRGELGIMGTELNSELAKAMKVDAQRGAFVSQVLPNSSAAKAGIKAGDVITSLNGKPISSFAALRAQVGTMPVGSKLTLGLLRDGKQVNVNLELQQSSQNQVDSSSIFNGIEGAEMSNKGKDQGVVVNNVKTGTPAAQIGLKKGDVIIGANQQAVKNIAELRKVLDSKPSVLALNIQRGDSTIYLLMQ [P0C0V0]	5.66 ± 0.5 h	5.71 ± 0.21 h	6.05 ± 0.44 h	5.87 ± 0.45 h	2.97 ± 0.12 h	5.88 ± 0.28 h	10.9 ± 0.37 h	5.86 ± 0.23 h	11.5 ± 0.38 h	5.75 ± 0.2 h	11.4 ± 0.4 h	5.85 ± 0.21 h
MKKVAIVGLGWLGMPLAMSLSARGWQVTGSKTTQDGVEAARMSGIDSYLLRMEPELVCDSDDLDALMDADALVITLPARRSGPGDEFYLQAVQELVDSALAHRIPRIIFTSSTSVYGDAQGTVKETTPRNPVTNSGRVLEELEDWLHNLPGTSVDILRLAGLVGPGRHPGRFFAGKTAPDGEHGVNLVHLEDVIGAITLLLQAPKGGHIYNICAPAHPARNVFYPQMARLLGLEPPQFRNSLDSGKGKIIDGSRICNELGFEYQYPDPLVMPLE [P0AD12]	4.79 ± 0.29 h	4.52 ± 0.45 h	4.63 ± 0.4 h	4.5 ± 0.096 h	3.06 ± 0.16 h	5.019 ± 0.0077 h	8.76 ± 1.2 h	4.35 ± 0.44 h	7.41 ± 0.52 h	5.61 ± 0.32 h	11.1 ± 0.28 h	5.07 ± 0.57 h
MKKVLIAALIAGFSLSATAAETIRFATEASYPPFESIDANNQIVGFDVDLAQALCKEIDATCTFSNQAFDSLIPSLKFRRVEAVMAGMDITPEREKQVLFTTPYYDNSALFVGQQGKYTSVDQLKGKKVGVQNGTTHQKFIMDKHPEITTVPYDSYQNAKLDLQNGRIDGVFGDTAVVTEWLKDNPKLAAVGDKVTDKDYFGTGLGIAVRQGNTELQQKLNTALEKVKKDGTYETIYNKWFQK	5.31 ± 0.27 h	5.44 ± 0.31 h	6.55 ± 0.075 h	6.01 ± 0.43 h	3.16 ± 0.44 h	5.9 ± 0.34 h	11.55 ± 0.079 h	5.64 ± 0.36 h	12.2 ± 0.92 h	6.04 ± 0.31 h	12.2 ± 0.73 h	7.11 ± 0.09 h
MKKVLLIILLLLVVLGIAAGVGVWKVRHLADSKLLIKEETIFTLKPGTGRLALGEQLYADKIINRPRVFQWLLRIEPDLSHFKAGTYRFTPQMTVREMLKLLESGKEAQFPLRLVEGMRLSDYLKQLREAPYIKHTLSDDKYATVAQALELENPEWIEGWFWPDTWMYTANTTDVALLKRAHKKMVKAVDSAWEGRADGLPYKDKNQLVTMASIIEKETAVASERDKVASVFINRLRIGMRLQTDPTVIYGMGERYNGKLSRADLETPTAYNTYTITGLPPGAIATPGADSLKAAAHPAKTPYLYFVADGKGGHTFNTNLASHNKSVQDYLKVLKEKNAQ	6.33 ± 0.68 h	6.52 ± 1.1 h	6.8 ± 0.6 h	6.22 ± 0.74 h	3.49 ± 0.33 h	6.65 ± 0.64 h	12.7 ± 1.6 h	6.34 ± 0.68 h	12.4 ± 1.7 h	6 ± 0.25 h	12 ± 0.45 h	6.58 ± 0.69 h
MKKVTAMLFSMAVGLNAVSMAAKAKASEEQETDVLLIGGGIMSATLGTYLRELEPEWSMTMVERLEGVAQESSNGWNNAGTGHSALMELNYTPQNADGSISIEKAVAINEAFQISRQFWAHQVERGVLRTPRSFINTVPHMSFVWGEDNVNFLRARYAALQQSSLFRGMRYSEDHAQIKEWAPLVMEGRDPQQKVAATRTEIGTDVNYGEITRQLIASLQKKSNFSLQLSSEVRALKRNDDNTWTVTVADLKNGTAQNIRAKFVFIGAGGAALKLLQESGIPEAKDYAGFPVGGQFLVSENPDVVNHHLAKVYGKASVGAPPMSVPHIDTRVLDGKRVVLFGPFATFSTKFLKNGSLWDLMSSTTTSNVMPMMHVGLDNFDLVKYLVSQVMLSEEDRFEALKEYYPQAKKEDWRLWQAGQRVQIIKRDAEKGGVLRLGTEVVSDQQGTIAALLGASPGASTAAPIMLNLLEKVFGDRVSSPQWQATLKAIVPSYGRKLNGDVAATERELQYTSEVLGLNYDKPQAADSTPKPQLKPQPVQKEVADIAL	3.81 ± 0.31 h	2.29 ± 0.29 h	1.1 ± 0.013 h	1.15 ± 0.2 h				1.19 ± 0.58 h	1.46 ± 0.27 h			0.95 h
MKKVVTVCPYCASGCKINLVVDNGKIVRAEAAQGKTNQGTLCLKGYYGWDFINDTQILTPRLKTPMIRRQRGGKLEPVSWDEALNYVAERLSAIKEKYGPDAIQTTGSSRGTGNETNYVMQKFARAVIGTNNVDCCARVUHGPSVAGLHQSVGNGAMSNAINEIDNTDLVFVFGYNPADSHPIVANHVINAKRNGAKIIVCDPRKIETARIADMHIALKNGSNIALLNAMGHVIIEENLYDKAFVASRTEGFEEYRKIVEGYTPESVEDITGVSASEIRQAARMYAQAKSAAILWGMGVTQFYQGVETVRSLTSLAMLTGNLGKPHAGVNPVRGQNNVQGACDMGALPDTYPGYQYVKDPANREKFAKAWGVESLPAHTGYRISELPHRAAHGEVRAAYIMGEDPLQTDAELSAVRKAFEDLELVIVQDIFMTKTASAADVILPSTSWGEHEGVFTAADRGFQRFFKAVEPKWDLKTDWQIISEIATRMGYPMHYNNTQEIWDELRHLCPDFYGATYEKMGELGFIQWPCRDTSDADQGTSYLFKEKFDTPNGLAQFFTCDWVAPIDKLTDEYPMVLSTVREVGHYSCRSMTGNCAALAALADEPGYAQINTEDAKRLGIEDEALVWVHSRKGKIITRAQVSDRPNKGAIYMTYQWWIGACNELVTENLSPITKTPEYKYCAVRVEPIADQRAAEQYVIDEYNKLKTRLREAALA	4.17 ± 0.28 h											
